For one substance, Kd results are on record in patent publication US20240150451A1.

This test concerns the target PHF-tau (paired helical filament tau; sarcosyl insoluble prep from human AD brain) (human) (UniProt P10636). Kind of test: SPR (ProteOn), mAb on PHF-tau, bivalent analyte fit; apparent affinity (avidity).

Sequence of PHF-tau (paired helical filament tau; sarcosyl insoluble prep from human AD brain) (human) (P10636 other isoform, or with tags, fused parts or gaps limits assumed): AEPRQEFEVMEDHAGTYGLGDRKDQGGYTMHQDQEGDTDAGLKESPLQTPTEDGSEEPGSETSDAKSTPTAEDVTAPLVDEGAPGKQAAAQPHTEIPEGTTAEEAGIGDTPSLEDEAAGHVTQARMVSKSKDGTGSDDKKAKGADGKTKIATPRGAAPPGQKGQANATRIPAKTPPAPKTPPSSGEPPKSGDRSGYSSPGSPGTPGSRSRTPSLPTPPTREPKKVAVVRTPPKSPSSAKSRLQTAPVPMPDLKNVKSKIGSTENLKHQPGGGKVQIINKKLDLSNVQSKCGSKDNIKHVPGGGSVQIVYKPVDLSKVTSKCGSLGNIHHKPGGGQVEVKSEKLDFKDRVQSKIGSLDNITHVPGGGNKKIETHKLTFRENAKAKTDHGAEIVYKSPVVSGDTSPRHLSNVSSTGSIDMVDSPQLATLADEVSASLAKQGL

As to HT7 (reference mAb) (antibody), the Kd came to 0.291 nM.
